B1: c-SRC (Myr-GSNKSKPKDASQ) fluorescein-labeled myristoylated peptide (peptide)
peptide: Myristoyl-GSNKSKPKDASQ
modifications: also: fluorescein label, position not given here
B2: fluorescein-labeled myristoylated FMNL3 peptide (Myr-GNLESAEGVPGE-Fluorescin-amide) (peptide)
peptide: Myristoyl-GNLESAEGVPGE-{Fluorescin-NH2}
B3: fluorescein-labeled myristoylated FMNL1 peptide (Myr-GNAAGSAEQPAG-Fluorescin-amide) (peptide)
peptide: Myristoyl-GNAAGSAEQPAG-{Fluorescin-NH2}

Where no end group is shown, it is not given here. The star is where a group is joined. Fluorescin = fluorescein label at the C-terminus, before the amide; Myristoyl = CCCCCCCCCCCCCC(=O)*

Broadly, the Kd is the free concentration of one partner at which half of the binding sites on the other are occupied at equilibrium, for simple one-to-one binding.

The experiment concerns the target full-length UNC119A (UniProt Q13432 1-240). Kind of experiment: fluorescence polarisation.
As to B1, binding was put at a Kd of 0.125 ± 0.069 µM.

B2: the Kd is 0.856 ± 0.156 µM.

The molecule B3 yielded a Kd of 0.0101 ± 0.0035 µM.

The record behind these values is publication PMC6179904 (Developmental Cell, 2018).
